Measurements: US20160264649A1

Assays:
Experiment in all cases: cell-based or functional assay
[1] = molecular target: HIV-1 92RW020 Env (HIV-1)
[2] = molecular target: HIV-1 92UG024 Env (HIV-1)
[3] = molecular target: HIV-1 93IN905 Env (HIV-1)
[4] = molecular target: HIV-1 93IN905 Env on pseudovirus (HIV-1)
[5] = molecular target: HIV-1 93MW959 Env on pseudovirus (HIV-1)
[6] = molecular target: HIV-1 93UG077 Env (HIV-1)
[7] = molecular target: HIV-1 97ZA012 Env on pseudovirus (HIV-1)
HIV-1 APV-6 Env (HIV-1) = molecular target: HIV-1 APV-6 Env (HIV-1)
HIV-1 CMU02 Env (HIV-1) = molecular target: HIV-1 CMU02 Env (HIV-1)
[8] = molecular target: HIV-1 IAVI-C18 Env (HIV-1)
[9] = molecular target: HIV-1 JRCSF Env on pseudovirus (HIV-1) (UniProt P20871)
[10] = molecular target: HIV-1 LAVI_C3 Env on pseudovirus (HIV-1)
[11] = molecular target: HIV-1 MGRM-AE-005 Env (HIV-1)
[12] = molecular target: HIV-1 MGRM-AE-007 Env (HIV-1)
[13] = molecular target: HIV-1 MGRM-AE-008 Env (HIV-1)
[14] = molecular target: HIV-1 MGRM-AG-002 Env (HIV-1)
[15] = molecular target: HIV-1 MGRM-AG-005 Env (HIV-1)
[16] = molecular target: HIV-1 MGRM-AG-009 Env (HIV-1)
[17] = molecular target: HIV-1 MGRM-AG-011 Env (HIV-1)
[18] = molecular target: HIV-1 MGRM-C-004 Env on pseudovirus (HIV-1)
[19] = molecular target: HIV-1 MGRM-C-005 Env on pseudovirus (HIV-1)
[20] = molecular target: HIV-1 MGRM-C-006 Env on pseudovirus (HIV-1)
[21] = molecular target: HIV-1 MGRM-C-007 Env on pseudovirus (HIV-1)
[22] = molecular target: HIV-1 MGRM-C-010 Env on pseudovirus (HIV-1)
[23] = molecular target: HIV-1 MGRM-C-012 Env on pseudovirus (HIV-1)
[24] = molecular target: HIV-1 MGRM-C-015 Env on pseudovirus (HIV-1)
[25] = molecular target: HIV-1 MGRM-C-022 Env on pseudovirus (HIV-1)
[26] = molecular target: HIV-1 MGRM-C-024 Env on pseudovirus (HIV-1)
[27] = molecular target: HIV-1 MGRM-Chronic-B-010 Env on pseudovirus (HIV-1)
[28] = molecular target: HIV-1 MGRM-Chronic-B-012 Env on pseudovirus (HIV-1)
[29] = molecular target: HIV-1 MGRM-Chronic-B-018 Env on pseudovirus (HIV-1)
[30] = molecular target: HIV-1 MGRM-Chronic-B-020 Env on pseudovirus (HIV-1)
[31] = molecular target: HIV-1 MGRM-Chronic-B-024 Env on pseudovirus (HIV-1)
[32] = molecular target: HIV-1 MGRM-D-001 Env (HIV-1)
[33] = molecular target: HIV-1 MGRM-D-004 Env (HIV-1)
[34] = molecular target: HIV-1 MGRM-D-012 Env (HIV-1)
[35] = molecular target: HIV-1 MGRM-D-019 Env (HIV-1)
[36] = molecular target: HIV-1 MGRM-D-026 Env (HIV-1)
[37] = molecular target: HIV-1 MGRM-F1-008 Env (HIV-1)
[38] = molecular target: HIV-1 MGRM-F1-010 Env (HIV-1)
[39] = molecular target: HIV-1 MGRM-F1-017 Env (HIV-1)
[40] = molecular target: HIV-1 MGRM-F1-020 Env (HIV-1)
[41] = molecular target: HIV-1 MGRM-F1-021 Env (HIV-1)
[42] = molecular target: HIV-1 MGRM-F1-023 Env (HIV-1)
[43] = molecular target: HIV-1 MGRM-G-001 Env (HIV-1)
[44] = molecular target: HIV-1 MGRM-G-004 Env (HIV-1)
[45] = molecular target: HIV-1 MGRM-G-016 Env (HIV-1)
[46] = molecular target: HIV-1 PVO.4 (Acute) Env on pseudovirus (HIV-1)
[47] = molecular target: HIV-1 SF162 Env on pseudovirus (HIV-1) (UniProt P19550)
[48] = molecular target: HIV-1 TRJ0.58 (Acute) Env on pseudovirus (HIV-1)

2F5 (antibody)
neutralization IC50 [1]: 3.37 µg/mL | neutralization IC90 [1]: 27.7 µg/mL | IC50 (µg/ml), pseudovirus neutralization [2]: 0.95 µg/mL | neutralization IC50 [2]: 1.27 µg/mL | neutralization IC90 [2]: 34.4 µg/mL | neutralization IC50 [3]: > 50 µg/mL | neutralization IC90 [3]: > 50 µg/mL | IC50 [4]: > 50 µg/mL | IC50 [5]: > 50 µg/mL | neutralization IC50 [6]: 4.45 µg/mL | neutralization IC90 [6]: 33.4 µg/mL | IC50 [7]: > 50 µg/mL | neutralization IC50 (HIV-1 APV-6 Env (HIV-1)): 0.1 µg/mL | IC50 (µg/ml), pseudovirus neutralization (HIV-1 CMU02 Env (HIV-1)): 0.6 µg/mL | neutralization IC50 (HIV-1 CMU02 Env (HIV-1)): 0.38 µg/mL | neutralization IC90 (HIV-1 CMU02 Env (HIV-1)): 12.2 µg/mL | neutralization IC50 [8]: > 50 µg/mL | IC50 [9]: 1.85 µg/mL | IC50 [10]: > 50 µg/mL | IC50 (µg/ml), pseudovirus neutralization [11]: 0.14 µg/mL | IC50 (µg/ml), pseudovirus neutralization [12]: 0.07 µg/mL | IC50 (µg/ml), pseudovirus neutralization [13]: > 50 µg/mL | IC50 (µg/ml), pseudovirus neutralization [14]: 0.54 µg/mL | IC50 (µg/ml), pseudovirus neutralization [15]: > 50 µg/mL | IC50 (µg/ml), pseudovirus neutralization [16]: 24.8 µg/mL | IC50 (µg/ml), pseudovirus neutralization [17]: > 50 µg/mL | IC50 [18]: > 50 µg/mL | IC50 [19]: > 50 µg/mL | IC50 [20]: > 50 µg/mL | IC50 [21]: > 50 µg/mL | IC50 [22]: > 50 µg/mL | IC50 [23]: > 50 µg/mL | IC50 [24]: > 50 µg/mL | IC50 [25]: > 50 µg/mL | IC50 [26]: > 50 µg/mL | IC50 [27]: 0.96 µg/mL | IC50 [28]: 17.6 µg/mL | IC50 [29]: 10.8 µg/mL | IC50 [30]: 0.78 µg/mL | IC50 [31]: > 50 µg/mL | IC50 (µg/ml), pseudovirus neutralization [32]: 0.63 µg/mL | IC50 (µg/ml), pseudovirus neutralization [33]: 2.3 µg/mL | IC50 (µg/ml), pseudovirus neutralization [34]: 1.7 µg/mL | IC50 (µg/ml), pseudovirus neutralization [35]: 0.14 µg/mL | IC50 (µg/ml), pseudovirus neutralization [36]: 4.37 µg/mL | IC50 (pseudovirus neutralization) [37]: 1.61 µg/mL | IC50 (pseudovirus neutralization) [38]: 14.6 µg/mL | IC50 (pseudovirus neutralization) [39]: > 50 µg/mL | IC50 (pseudovirus neutralization) [40]: 0.59 µg/mL | IC50 (pseudovirus neutralization) [41]: 1.37 µg/mL | IC50 (pseudovirus neutralization) [42]: 1.78 µg/mL | IC50 (µg/ml), pseudovirus neutralization [43]: 4.1 µg/mL | IC50 (µg/ml), pseudovirus neutralization [44]: > 50 µg/mL | IC50 (µg/ml), pseudovirus neutralization [45]: 16.8 µg/mL | IC50 [46]: > 50 µg/mL | IC50 [47]: 2.52 µg/mL | IC50 [48]: > 50 µg/mL
